Results taken from patent publication US12281155 (INSTITUT PASTEUR, dated 2025).
Substitutions are numbered along the chain they refer to.

B1: SPK002M A4 antibody (antibody, human IgG1, kappa, V domains shown)
VH: EVQLVESGGGLIQPGGSLRLSCAASVITVTSNYMSWVRQAPGKGLEWVSVIYPGGSTFYADSVKGRFTISADNSKNTLYLQMNSLRAEDTAVYYCARDLVVYGMDVWGQGTTVTVSS
VL: EIVLTQSPGTLSLSPGERATLSCRASQSVSSSYLAWYQQKPGQAPRLLIYGASSRATGIPGRFSGSGSGTDFTLTISRLEPEDFAVYYCQQGVTFGGGTKVEIKR
B2: SPK002M B2 antibody (antibody, human IgG1, kappa, V domains shown)
VH: B1 VH with V26I, A71Y
VL: B1 VL with V86I
B3: SPK002M A5 antibody (antibody, human IgG1, kappa, V domains shown)
VH: B1 VH
VL: B1 VL with V86I
B4: SPK002M B1 antibody (antibody, human IgG1, kappa, V domains shown)
VH: B1 VH with V26I, A71Y
VL: B1 VL with S31D, V86I, Q91Y

These binders were tested against Spike protein of SARS-CoV-2 strain XBB.1.16 (hCoV-19/France/GES-IPP7712/2023) (SARS-CoV-2) (assay: cell-based or functional assay).

Binder	IC50, S-Fuse neutralization of live virus
B1	0.36 µg/mL
B2	0.32 µg/mL
B3	0.36 µg/mL
B4	0.18 µg/mL

What follows are binders tested against Spike protein of SARS-CoV-2 strain D614G (hCoV-19/France/GE1973/2020) (SARS-CoV-2, UniProt P0DTC2 14-1273) (assay: cell-based or functional assay).

Binder	IC50, S-Fuse neutralization of live virus
B1	0.11 µg/mL
B2	0.09 µg/mL
B3	0.09 µg/mL
B4	0.11 µg/mL

What follows are binders tested against Spike protein of SARS-CoV-2 strain BA.2.86 (hCoV-19/France/IDF-IPP17625/2023) (SARS-CoV-2) (assay: cell-based or functional assay).

Binder	IC50, S-Fuse neutralization of live virus
B1	0.04 µg/mL
B2	0.19 µg/mL
B3	0.08 µg/mL
B4	0.03 µg/mL

Each binder was assayed against Spike protein of SARS-CoV-2 strain EG.5.1 (hCoV-19/France/GES-IPP15954/2023) (SARS-CoV-2) (assay: cell-based or functional assay).

Binder	IC50, S-Fuse neutralization of live virus
B1	2.8 µg/mL
B2	5.53 µg/mL
B3	2.86 µg/mL
B4	0.19 µg/mL

The binders below were run against Spike protein of SARS-CoV-2 strain XBB.1.5 (GISAID EPI_ISL_16353849) (SARS-CoV-2) (assay: cell-based or functional assay).

Binder	IC50, S-Fuse neutralization of live virus
B1	0.12 µg/mL
B2	0.14 µg/mL
B3	0.12 µg/mL
B4	0.07 µg/mL

These binders were tested against Spike protein of SARS-CoV-2 strain JN.1 (hCoV-19/France/HDF-IPP21391/2023) (SARS-CoV-2) (assay: cell-based or functional assay).

Binder	IC50, S-Fuse neutralization of live virus
B1	54.6 µg/mL
B2	85.8 µg/mL
B3	50.9 µg/mL
B4	4.1 µg/mL

Each binder was assayed against T1, recombinant SARS-CoV-2 Spike RBD domain, BA.4/5 variant (SARS-CoV-2) (assay: ELISA on coated RBD).
T1 construct: also called RBD BA.4/5 variant

Binder	Binding AUC
B1	30
B2	30
B3	32
B4	31

These binders were tested against T2, recombinant SARS-CoV-2 Spike RBD domain, BA.2 variant (SARS-CoV-2) (assay: ELISA on coated RBD).
T2 construct: also called RBD BA.2. variant

Binder	Binding AUC
B1	29
B2	26
B3	27
B4	29

The binders below were run against T3, recombinant SARS-CoV-2 Spike RBD domain, XBB.1.5 variant (SARS-CoV-2) (assay: ELISA on coated RBD).
T3 construct: also called RBD XBB.1.5 variant

Binder	Binding AUC
B1	35
B2	32
B3	35
B4	31

These binders were tested against T4, recombinant SARS-CoV-2 Spike RBD domain, Delta variant (SARS-CoV-2) (assay: ELISA on coated RBD).
T4 construct: also called RBD Delta variant

Binder	Binding AUC
B1	31
B2	32
B3	33
B4	33

What follows are binders tested against T5, recombinant SARS-CoV-2 Spike RBD domain, EG.5 variant (SARS-CoV-2) (assay: ELISA on coated RBD).
T5 construct: also called RBD EG.5.1 variant

Binder	Binding AUC
B1	34
B2	32
B3	35
B4	33

What follows are binders tested against T6, recombinant SARS-CoV-2 Spike RBD domain, BQ.1.1 variant (SARS-CoV-2) (assay: ELISA on coated RBD).
T6 construct: also called RBD BQ.1.1. variant

Binder	Binding AUC
B1	30
B2	31
B3	30
B4	31

Each binder was assayed against T7, recombinant SARS-CoV-2 Spike RBD domain, XBB.1.16 variant (SARS-CoV-2) (assay: ELISA on coated RBD).
T7 construct: also called RBD XBB.1.16 variant

Binder	Binding AUC
B1	30
B2	30
B3	31
B4	30

Each binder was assayed against T8, recombinant SARS-CoV-2 Spike RBD domain, BA.2.86 variant (SARS-CoV-2) (assay: ELISA on coated RBD).
T8 construct: also called RBD BA.2.86 variant

Binder	Binding AUC
B1	38
B2	39
B3	38
B4	39

Each binder was assayed against T9, recombinant SARS-CoV-2 Spike RBD domain, JN-1 variant (SARS-CoV-2) (assay: ELISA on coated RBD).
T9 construct: also called RBD JN-1 variant

Binder	Binding AUC
B1	31
B2	28
B3	32
B4	38

These binders were tested against T10, recombinant SARS-CoV-2 Spike RBD domain, BA.2.75.2 variant (SARS-CoV-2) (assay: ELISA on coated RBD).
T10 construct: also called RBD BA.2.75.2 variant

Binder	Binding AUC
B1	34
B2	29
B3	34
B4	30

What follows are binders tested against T1, recombinant SARS-CoV-2 Spike RBD … (assay: competition ELISA, blocking of RBD binding to ACE2 ectodomain).

Binder	Blocking %
B1	96%
B2	91%
B3	96%
B4	95%

The binders below were run against T2, recombinant SARS-CoV-2 Spike RBD … in the same assay as above.

Binder	Blocking %
B1	93%
B2	92%
B3	93%
B4	95%

The binders below were run against T3, recombinant SARS-CoV-2 Spike RBD … in the same assay as above.

Binder	Blocking %
B1	95%
B2	92%
B3	95%
B4	97%

What follows are binders tested against T4, recombinant SARS-CoV-2 Spike RBD … in the same assay as above.

Binder	Blocking %
B1	93%
B2	88%
B3	93%
B4	91%

The binders below were run against T5, recombinant SARS-CoV-2 Spike RBD … in the same assay as above.

Binder	Blocking %
B1	80%
B2	70%
B3	83%
B4	95%

These binders were tested against T6, recombinant SARS-CoV-2 Spike RBD … in the same assay as above.

Binder	Blocking %
B1	96%
B2	95%
B3	96%
B4	97%

Each binder was assayed against T7, recombinant SARS-CoV-2 Spike RBD … in the same assay as above.

Binder	Blocking %
B1	95%
B2	92%
B3	95%
B4	97%

Each binder was assayed against T8, recombinant SARS-CoV-2 Spike RBD … in the same assay as above.

Binder	Blocking %
B1	80%
B2	86%
B3	84%
B4	94%

These binders were tested against T9, recombinant SARS-CoV-2 Spike RBD … in the same assay as above.

Binder	Blocking %
B1	2%
B2	0%
B3	2%
B4	66%

The binders below were run against T10, recombinant SARS-CoV-2 Spike RBD … in the same assay as above.

Binder	Blocking %
B1	96%
B2	91%
B3	95%
B4	91%
